Here are results for four molecules from article PMC8718552 (Frontiers in Immunology, 2021).

Data set [1] deals with CD14 on human CD14+ monocytes (UniProt P08571). The experiment in a line: flow cytometry on cells.
The target of data set [2] is SARS-CoV-2 ORF8 (S84) (71–76) A mutant (SARS-CoV-2) (UniProt P0DTC8). The experiment in a line: SEC. (SEC sorts molecules by how far they enter the pores of the column.)
In data set [3] the target is SARS-CoV-2 ORF8 (S84) Ig-like domain (SARS-CoV-2) (UniProt P0DTC8). The data set is described as follows: SEC.
For data set [4] the target is unchanged. The data set is described as follows: non-reducing SDS-PAGE.
The data set “non-reducing SDS-PAGE” deals with the molecule itself. The data set is described as follows: non-reducing SDS-PAGE.

CD14 on human CD14+ monocytes, sequence (P08571 20-345): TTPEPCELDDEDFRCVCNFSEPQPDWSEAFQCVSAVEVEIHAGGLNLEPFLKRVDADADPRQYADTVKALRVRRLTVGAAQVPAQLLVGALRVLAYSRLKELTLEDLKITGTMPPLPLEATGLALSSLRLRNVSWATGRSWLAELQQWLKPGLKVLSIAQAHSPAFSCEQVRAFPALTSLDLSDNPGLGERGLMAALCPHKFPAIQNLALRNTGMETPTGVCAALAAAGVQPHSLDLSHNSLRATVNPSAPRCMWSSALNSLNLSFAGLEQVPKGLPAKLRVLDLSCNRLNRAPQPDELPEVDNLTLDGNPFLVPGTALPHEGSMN

In the case of “SARS-CoV-2 ORF8 (L84) Ig-like domain (from UniProt P0DTC8) L84S”, the response in data set [1] (parent: 48.7) is 37.7%; in data set [1] (parent: 51.8) it was 32.7%; in data set [1] (parent: 54.1), 32.7%; in data set [1] (parent: 68.0), 47.9%; in data set [1] (parent: est. 56, read off a plot) it was 38%.
Broadly, the stoichiometry N is the number of molecules, sites or subunits per partner or assembly. Turning to “SARS-CoV-2 ORF8 (S84) (71–76) A mutant (from UniProt P0DTC8 16-121) (domain or fragment)”, the stoichiometry N in data set [2] was 2.
With “SARS-CoV-2 ORF8 (S84) Ig-like domain (from UniProt P0DTC8 16-121) (domain or fragment)”, the stoichiometry N in data set [3] and in data set [4] was 2 each time.

B1: SARS-CoV-2 ORF8 (L84) (71–76) A (domain or fragment)
chain: FHQECSLQSCTQHQPYVVDDPCPIHFYSKWYIRVGARKSAPLIELCVDEAGSKSPAAAAAAGNYTVSCLPFTINCQEPKLGSLVVRCSFYEDFLEYHDVRVVLDFI
For B1, the binding result in the data set “non-reducing SDS-PAGE” was “binds”.
